Data taken from paper PMC3915751.

Test system: T1, BaeR (Erwinia amylovora Ea1189 (primers from CFBP1430 genome)), ORF:3df56c72
T1 sequence: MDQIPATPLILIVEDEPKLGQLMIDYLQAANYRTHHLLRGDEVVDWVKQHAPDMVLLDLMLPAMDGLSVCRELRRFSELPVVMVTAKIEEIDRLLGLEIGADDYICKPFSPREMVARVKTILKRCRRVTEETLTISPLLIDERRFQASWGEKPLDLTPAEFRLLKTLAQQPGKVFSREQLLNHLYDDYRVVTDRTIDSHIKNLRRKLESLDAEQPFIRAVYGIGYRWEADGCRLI
Assay: EMSA
Settings: 50 mM Tris-HCl pH 7.5, 1 mM DTT, 500 mM MgCl2, 100 mM EDTA, 10 mM NaCl ([…], room temperature 30 min

Row | Sequence | binding
1 | TGTTTGGTATTTCGTGCCATAGCGGTATGATTTACAACGCTTCAGACTTACATACATTTGCGAATGTATGTACTATAGCACGACTAAAATTTAAACGCAGCAGTGGGTTTGTAATCCATTGAACAATCGATATCGGACATTCGAGGTTTATTTATGAACAAAAACAGAGGGTTAACGCCTCTGGCGGCCGTTCTGATGCTTTCAG (double strand) [acrAB upstream region (205 bp)] | binds more weakly
2 | TGGCTGGCAACACTGAAGCCGCCCAGGCTCAGGCCGATGAGTAAAGGGAGCAGTTTGTTCATTTGCATTCCTTGTAGTGCAGCAAAATTGTTATGGTAGCGTTGACGCAGACCAAAAATTGTCGCCGATGATAGCAGAGACTCCGGATCAGGTAAGTTGGCTGAAAGTGCCATCCTCCTTTTAATTTACTTAAATACTTCATCAAGAACCAGACATCCGGCTGATTACTATTGAACTAAACGTTTTCGCCATTATTTCAGGAGATACAGTGATGACCGCAGTGACCAATTA (double strand) [tolC upstream region (291 bp)] | no binding
